Measurements as given in PMC8495130, “Synthesis of L-asparagine Catalyzed by a Novel Asparagine Synthase Coupled With an ATP Regeneration System” (Frontiers in Bioengineering and Biotechnology, 2021).

Assays:
purified protein [1] = substrate: N[C@@H](CC(=O)O)C(=O)O; assay: purified protein; details: standard assay: NH4Cl, ATP, Mg2+, Tris-HCl pH 8.0, 37°C, purification state of the kinetic sample not stated
purified protein [2] = substrate: N; assay: purified protein; details: standard assay: L-Asp, ATP, Mg2+, Tris-HCl pH 8.0, 37°C, purification state of the kinetic sample not stated
[3] = substrate: Nc1ncnc2c1ncn2[C@@H]1O[C@H](COP(=O)(O)OP(=O)(O)OP(=O)(O)O)[C@@H](O)[C@H]1O; assay: HPLC of L-Asn after OPA derivatization; double reciprocal plot; assay type: biochemical, Ligilactobacillus salivarius; details: standard assay: L-Asp, NH4Cl, Mg2+, Tris-HCl pH 8.0, 37°C, purification state of the kinetic sample not stated
Excerpt: HPLC of L-Asn after OPA derivatization; double reciprocal plot on LsaAS-A

B1: LsaAS-A (Ligilactobacillus salivarius UCC118) (protein)
chain: MDLIIPKDYDPKLSIRETQEAIRYIRETFQDEFGKEMGLNRVSAPMYVEKSSGINDNLNGYEKPVSFTMKDMPGETIEVVHSLAKWKRMALKKYGFGLHEGLYTNMNAIRKDEDLDNFHSSYVDQWDWEKVISKDERNEKTLKETVELIFKVVKHMEHEVWYKFPNAVYHLPDKIHFITSQELEDKYPELEDAKDRENAICKELGCVFVMQIGDVLKSGKRHDGRAPDYDDWKLNGDILFWYEPLQCALELSSMGIRVDEDSMVEQLKKTGDEDRLKLQYHKMILNKELPYTIGGGIGQSRLCMLLLGKAHVGEVQASIWPDEMLKKCEENGIHIL
notes: full-length asnA product (~40 kDa) from plasmid pMA5, expressed in Bacillus subtilis WB600; Ni-NTA purification described in methods
**Q.** How did the Km (purified protein [1]) turn out when B1 was run?
**A.** 780 µM

**Q.** And the Km (purified protein [2])?
**A.** 6500 µM

**Q.** And the Km [3]?
**A.** 2240 µM
